In assay [1] the target is CD30 expressed on L540 cells (Homo sapiens (Human)) (UniProt P28908).
The target in assay [2] is FcγRIIIa Phe/Phe^158 on human effector cells (human) (UniProt P08637).
Assay [3] concerns the target CD30 expressed on L540 cells (Homo sapiens (Human)) (UniProt P28908). Put plainly: flow cytometry on CD30-expressing L540 cells, FITC-labeled goat anti-human secondary. (In general: In flow cytometry, cells or beads pass a laser one at a time.)

Sequence of UniProt P28908 (P28908 19-595 limits assumed): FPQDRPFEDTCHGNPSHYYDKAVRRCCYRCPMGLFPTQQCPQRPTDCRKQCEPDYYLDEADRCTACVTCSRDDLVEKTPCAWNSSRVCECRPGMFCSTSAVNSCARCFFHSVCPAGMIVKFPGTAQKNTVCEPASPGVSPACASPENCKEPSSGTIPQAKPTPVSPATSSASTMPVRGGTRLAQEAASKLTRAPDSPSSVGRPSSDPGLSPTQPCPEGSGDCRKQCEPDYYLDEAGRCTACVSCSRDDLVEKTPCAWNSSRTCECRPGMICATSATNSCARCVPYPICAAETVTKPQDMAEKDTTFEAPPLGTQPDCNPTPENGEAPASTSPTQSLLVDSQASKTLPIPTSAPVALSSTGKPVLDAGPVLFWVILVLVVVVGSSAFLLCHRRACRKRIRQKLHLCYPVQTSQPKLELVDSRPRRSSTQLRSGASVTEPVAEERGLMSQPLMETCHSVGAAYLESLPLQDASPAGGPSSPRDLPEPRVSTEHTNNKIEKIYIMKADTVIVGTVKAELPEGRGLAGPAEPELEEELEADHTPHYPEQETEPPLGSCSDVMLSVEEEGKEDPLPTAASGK

MDX-060 CHO (antibody) had an ADCC, maximal percent cell lysis (heterozygous FcγRIIIa Phe/Val^158 effector cells) in assay [1] of 31%. This substance yielded an ADCC, maximal percent cell lysis (homozygous FcγRIIIa Phe/Phe^158 effector cells) in assay [2] of 15%. Besides, the half-maximal effective concentration (EC50) – broadly, the concentration giving half of the maximal effect – in assay [3] was 0.18 µg/mL.

In turn, MDX-060 LEX (antibody) came in with an ADCC, maximal percent cell lysis (heterozygous FcγRIIIa Phe/Val^158 effector cells) in assay [1] of 31%. Besides, the ADCC, maximal percent cell lysis (homozygous FcγRIIIa Phe/Phe^158 effector cells) in assay [2] worked out at 27%. For the same substance, the EC50 in assay [3] was determined as 0.227 µg/mL.

As for MDX-060 LEX^Opt (antibody), in assay [1], the ADCC EC50, times lower than MDX-060 CHO (FcγRIIIa Val/Phe^158 effector cells) came out at 5 times lower and the ADCC EC50, times lower than MDX-060 LEX (FcγRIIIa Val/Phe^158 effector cells) worked out at 3 times lower. This substance returned an ADCC EC50, times lower than MDX-060 CHO (FcγRIIIa Phe/Phe^158 effector cells) in assay [2] of 3 times lower. For the same substance, the EC50 in assay [3] was 0.196 µg/mL.

(Values after patent US8716557B2.)
